From patent US20260167721A1 (ABLEXIS, published 2026)

Tests used:
[1] = target: T1, human CD3 (TCR/CD3 complex on the cell surface) (human, UniProt P07766 23-207; P04234 22-171; P09693 23-182); test: flow cytometry, Jurkat WT gMFI over Jurkat KO gMFI, 1 ug/mL
T1 construct: whole, on cells; Native CD3 on human Pan-T cells or Jurkat wild-type cells; also called CD3 on Pan-T cells; CD3 on Jurkat WT cells

[2] = target: T1, human CD3 (TCR/CD3 complex on the cell …); test: flow cytometry, Pan-T cells, 1 ug/mL
[3] = target: T1, human CD3 (TCR/CD3 complex on the cell …); test: flow cytometry, Jurkat WT cells, 10 ug/mL
[4] = target: T1, human CD3 (TCR/CD3 complex on the cell …); test: flow cytometry, Jurkat WT cells, 1 ug/mL
[5] = target: T1, human CD3 (TCR/CD3 complex on the cell …); test: flow cytometry, Pan-T cells, 10 ug/mL
[6] = target: T1, human CD3 (TCR/CD3 complex on the cell …); test: flow cytometry, Jurkat WT gMFI over Jurkat KO gMFI, 10 ug/mL

T1 sequence (P07766 23-207, chain 1 of 3): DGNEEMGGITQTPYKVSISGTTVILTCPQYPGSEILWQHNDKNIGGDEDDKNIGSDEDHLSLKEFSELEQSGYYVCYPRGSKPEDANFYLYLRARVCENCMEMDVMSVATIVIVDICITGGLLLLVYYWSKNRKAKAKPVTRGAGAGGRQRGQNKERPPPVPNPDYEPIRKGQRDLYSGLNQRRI
T1 sequence (P04234 22-171, chain 2 of 3): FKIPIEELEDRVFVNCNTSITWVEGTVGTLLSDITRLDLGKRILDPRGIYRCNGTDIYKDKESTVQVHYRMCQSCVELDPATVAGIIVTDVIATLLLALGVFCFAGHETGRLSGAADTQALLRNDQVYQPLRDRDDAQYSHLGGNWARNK
T1 sequence (P09693 23-182, chain 3 of 3): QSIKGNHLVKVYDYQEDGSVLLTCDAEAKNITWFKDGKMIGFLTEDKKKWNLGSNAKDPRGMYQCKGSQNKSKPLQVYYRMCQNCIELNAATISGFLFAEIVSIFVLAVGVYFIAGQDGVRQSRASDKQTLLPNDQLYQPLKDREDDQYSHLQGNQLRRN

| Jurkat WT/KO (Fold) [1] [fold] | % Positive [2] [%] | gMFI [2] [gMFI] | gMFI [3] [gMFI] | gMFI [4] [gMFI] | % Positive [5] [%] | gMFI [5] [gMFI] | Jurkat WT/KO (Fold) [6] [fold] | Binder |
| --- | --- | --- | --- | --- | --- | --- | --- | --- |
| 6.6 | 98 | 66500 | 28800 | 20300 | 99.8 | 225000 | 9.9 | CD3 × CD33-BspAb78 (bispecific antibody) chain 1: EVQLVESGGGLVKFGGSLRLSCAASGFTFSRYSMNWVRQAPGKCLEWVSSISSSSSYKYYADSVKGRFTISRDNAKNSLYLQMNSLRAEDTAVYYCAREGGNSHGMDVWGQGTTVTVSSGGGGSGGGGSGGGGSGGGGSNFMLTQPHSVSESPGKTVTISCTRSSGSIASNYVQWYQQRPGSSPTTVIYEDNQRPSGVPDRFSGSIDSSSNSASLTISGLKTEDEADYYCQSYDSSNRVFGCGTKLTVLDKTHTCPPCPAPEFEGGPSVFLFPPKPKDTLMISRTPEVTCVVVDVSHEDPEVKFNWYVDGVEVHNAKTKPREEQYNSTYRVVSVLTVLHQDWLNGKEYKCKVSNKALPASIEKTISKAKGQPREPQVYTLPPCREEMTKNQVSLWCLVKGFYPSDIAVEWESNGQPENNYKTTPPVLDSDGSFFLYSKLTVDKSRWQQGNVFSCSVMHEALHNHYTQKSLSLSPGK chain 2: EVQLVQSGAEVKKPGSSVKVSCKASGYTITDSNIHWVRQAPGQSLEWIGYIYPYNGGTDYNQKFKNRATLTVDNPTNTAYMELSSLRSEDTAFYYCVNGNPWLAYWGQGTLVTVSSASTKGPSVFPLAPSSKSTSGGTAALGCLVKDYFPEPVTVSWNSGALTSGVHTFPAVLQSSGLYSLSSVVTVPSSSLGTQTYICNVNHKPSNTKVDKRVEPKSCDKTHTCPPCPAPEFEGGPSVFLFPPKPKDTLMISRTPEVTCVVVDVSHEDPEVKFNWYVDGVEVHNAKTKPREEQYNSTYRVVSVLTVLHQDWLNGKEYKCKVSNKALPASIEKTISKAKGQPREPQVCTLPPSREEMTKNQVSLSCAVKGFYPSDIAVEWESNGQPENNYKTTPPVLDSDGSFFLVSKLTVDKSRWQQGNVFSCSVMHEALHNRFTQKSLSLSPGK chain 3: DIQLTQSPSTLSASVGDRVTITCRASESLDNYGIRFLTWFQQKPGKAPKLLMYAASNQGSGVPSRFSGSGSGTEFTLTISSLQPDDFATYYCQQTKEVPWSFGQGTKVEVKRTVAAPSVFIFPPSDEQLKSGTASVVCLLNNFYPREAKVQWKVDNALQSGNSQESVTEQDSKDSTYSLSSTLTLSKADYEKHKVYACEVTHQGLSSPVTKSFNRGEC |
| 7.1 | 99.7 | 79900 | 55100 | 24100 | 99.8 | 369000 | 13.5 | CD3 × CD33-BspAb81 (bispecific antibody) chain 1: QVQLQESGPGLVKPSQTLSLTCTVSGGSISSGGYYWSWIRQHPGKCLEWIGYIYYSGSTYYNPSLKSRVTISVDTSKDQFSLKLSSVTAADTAVYYCARERKTSLPFDIWGQGTMVTVSSGGGGSGGGGSGGGGSGGGGSNFMLTQPHSVSESPGKTVTISCTRSSGSIASNYVQWYQQRPGSSPTTVIYEDNQRPSGVPDRFSGSIDSSSNSASLTISGLKTEDEAYYYCQSFDSSNRVFGCGTKLTVLDKTHTCPPCPAPEFEGGPSVFLFPPKPKDTLMISRTPEVTCVVVDVSHEDPEVKFNWYVDGVEVHNAKTKPREEQYNSTYRVVSVLTVLHQDWLNGKEYKCKVSNKALPASIEKTISKAKGQPREPQVYTLPPCREEMTKNQVSLWCLVKGFYPSDIAVEWESNGQPENNYKTTPPVLDSDGSFFLYSKLTVDKSRWQQGNVFSCSVMHEALHNHYTQKSLSLSPGK chain 2: EVQLVQSGAEVKKPGSSVKVSCKASGYTITDSNIHWVRQAPGQSLEWIGYIYPYNGGTDYNQKFKNRATLTVDNPTNTAYMELSSLRSEDTAFYYCVNGNPWLAYWGQGTLVTVSSASTKGPSVFPLAPSSKSTSGGTAALGCLVKDYFPEPVTVSWNSGALTSGVHTFPAVLQSSGLYSLSSVVTVPSSSLGTQTYICNVNHKPSNTKVDKRVEPKSCDKTHTCPPCPAPEFEGGPSVFLFPPKPKDTLMISRTPEVTCVVVDVSHEDPEVKFNWYVDGVEVHNAKTKPREEQYNSTYRVVSVLTVLHQDWLNGKEYKCKVSNKALPASIEKTISKAKGQPREPQVCTLPPSREEMTKNQVSLSCAVKGFYPSDIAVEWESNGQPENNYKTTPPVLDSDGSFFLVSKLTVDKSRWQQGNVFSCSVMHEALHNRFTQKSLSLSPGK chain 3: DIQLTQSPSTLSASVGDRVTITCRASESLDNYGIRFLTWFQQKPGKAPKLLMYAASNQGSGVPSRFSGSGSGTEFTLTISSLQPDDFATYYCQQTKEVPWSFGQGTKVEVKRTVAAPSVFIFPPSDEQLKSGTASVVCLLNNFYPREAKVQWKVDNALQSGNSQESVTEQDSKDSTYSLSSTLTLSKADYEKHKVYACEVTHQGLSSPVTKSFNRGEC |
| 13.1 | 99.7 | 330000 | 59400 | 50500 | 99.8 | 486000 | 15 | CD3 × CD33-BspAb80 (bispecific antibody) chain 1: QVQLQESGPGLVKPSETLSLTCTVSGGSISSYYWSWIRQPAGKCLEWIGRIYTSGSTKYNPSLKSRVTMSVDTSKNQFSLKLISVTAADTAVYFCARERIRDLYFDYWGQGTLVTVSSGGGGSGGGGSGGGGSGGGGSNFMLTQPHSVSESPGKTVTISCTRTSGSIASNYVQWYQQRPGSSPTTVIYEDNQRPSGVPDRFSGSIDSSSNSASLTISGLKTEDEAAYYCQSYDRSNRVFGCGTKLTVLDKTHTCPPCPAPEFEGGPSVFLFPPKPKDTLMISRTPEVTCVVVDVSHEDPEVKFNWYVDGVEVHNAKTKPREEQYNSTYRVVSVLTVLHQDWLNGKEYKCKVSNKALPASIEKTISKAKGQPREPQVYTLPPCREEMTKNQVSLWCLVKGFYPSDIAVEWESNGQPENNYKTTPPVLDSDGSFFLYSKLTVDKSRWQQGNVFSCSVMHEALHNHYTQKSLSLSPGK chain 2: EVQLVQSGAEVKKPGSSVKVSCKASGYTITDSNIHWVRQAPGQSLEWIGYIYPYNGGTDYNQKFKNRATLTVDNPTNTAYMELSSLRSEDTAFYYCVNGNPWLAYWGQGTLVTVSSASTKGPSVFPLAPSSKSTSGGTAALGCLVKDYFPEPVTVSWNSGALTSGVHTFPAVLQSSGLYSLSSVVTVPSSSLGTQTYICNVNHKPSNTKVDKRVEPKSCDKTHTCPPCPAPEFEGGPSVFLFPPKPKDTLMISRTPEVTCVVVDVSHEDPEVKFNWYVDGVEVHNAKTKPREEQYNSTYRVVSVLTVLHQDWLNGKEYKCKVSNKALPASIEKTISKAKGQPREPQVCTLPPSREEMTKNQVSLSCAVKGFYPSDIAVEWESNGQPENNYKTTPPVLDSDGSFFLVSKLTVDKSRWQQGNVFSCSVMHEALHNRFTQKSLSLSPGK chain 3: DIQLTQSPSTLSASVGDRVTITCRASESLDNYGIRFLTWFQQKPGKAPKLLMYAASNQGSGVPSRFSGSGSGTEFTLTISSLQPDDFATYYCQQTKEVPWSFGQGTKVEVKRTVAAPSVFIFPPSDEQLKSGTASVVCLLNNFYPREAKVQWKVDNALQSGNSQESVTEQDSKDSTYSLSSTLTLSKADYEKHKVYACEVTHQGLSSPVTKSFNRGEC |
| 4 | 99.3 | 34700 | 20400 | 8830 | 99.4 | 166000 | 8.9 | CD3 × CD33-BspAb79 (bispecific antibody) chain 1: QVQLQESGPGLVKPSETLSLTCTVSGGSISSYYWSWIRQPAGKCLEWIGRIYASGSTYYNPSLKSRVTMSVDTSKNQFSLKLSSVTAADTAVYYCAREKRSRLYFDYWGQGTLVTVSSGGGGSGGGGSGGGGSGGGGSNFMLTQPHSVSESPGKTVTISCTRSSGSIASNYVQWYQQRPGSSPTTVIYEDNQRPSGVPDRFSGSIDSSSNSASLTISGLKTEDEGDYYCQSYDRSNRVFGCGTKLTVLDKTHTCPPCPAPEFEGGPSVFLFPPKPKDTLMISRTPEVTCVVVDVSHEDPEVKFNWYVDGVEVHNAKTKPREEQYNSTYRVVSVLTVLHQDWLNGKEYKCKVSNKALPASIEKTISKAKGQPREPQVYTLPPCREEMTKNQVSLWCLVKGFYPSDIAVEWESNGQPENNYKTTPPVLDSDGSFFLYSKLTVDKSRWQQGNVFSCSVMHEALHNHYTQKSLSLSPGK chain 2: EVQLVQSGAEVKKPGSSVKVSCKASGYTITDSNIHWVRQAPGQSLEWIGYIYPYNGGTDYNQKFKNRATLTVDNPTNTAYMELSSLRSEDTAFYYCVNGNPWLAYWGQGTLVTVSSASTKGPSVFPLAPSSKSTSGGTAALGCLVKDYFPEPVTVSWNSGALTSGVHTFPAVLQSSGLYSLSSVVTVPSSSLGTQTYICNVNHKPSNTKVDKRVEPKSCDKTHTCPPCPAPEFEGGPSVFLFPPKPKDTLMISRTPEVTCVVVDVSHEDPEVKFNWYVDGVEVHNAKTKPREEQYNSTYRVVSVLTVLHQDWLNGKEYKCKVSNKALPASIEKTISKAKGQPREPQVCTLPPSREEMTKNQVSLSCAVKGFYPSDIAVEWESNGQPENNYKTTPPVLDSDGSFFLVSKLTVDKSRWQQGNVFSCSVMHEALHNRFTQKSLSLSPGK chain 3: DIQLTQSPSTLSASVGDRVTITCRASESLDNYGIRFLTWFQQKPGKAPKLLMYAASNQGSGVPSRFSGSGSGTEFTLTISSLQPDDFATYYCQQTKEVPWSFGQGTKVEVKRTVAAPSVFIFPPSDEQLKSGTASVVCLLNNFYPREAKVQWKVDNALQSGNSQESVTEQDSKDSTYSLSSTLTLSKADYEKHKVYACEVTHQGLSSPVTKSFNRGEC |
